The nature of the series: label from the status in PepcDB records.

Consider “MSISDNSRDQLGELPAGRPLQSDFDNDLDYPRLGSVTFRRGTLTENQQTMWDEKWPELGRVLEDELIDVDAWFGREGAKTIVEIGSGTGTSTAAMAPLEADTNIVAVELYKPGLAKLMGSVVRGEIDNVRMVRGDGIEVLNRMFADGSLDGIRVYFPDPWPKARHNKRRIIQSGPLNLFAKKLKPGGVLHVATDHADYAEWINELVEVEPLLEYKGWPWEECPQLTDRQVITKFEGKGLEKDHVINEYLWQKVQN”, for which the protein production entry is listed as “failed”. On to “MSITLITAAPGAGKTIFAVWNIIKPAVEADRVVYTAGIPELKLPAISLSYSQVKRWADRELVEVENPSGIPIPDDEKPSRLQNITEGALIVIDEVQYLWPASGSREPGEDIKYLTKHRHHGLEFVLITQAPQLIHKNVLAVVDKHIHMLSDWHGRKRYEWPEYCATVRATSSKLKAVSQRYELPKEAYGLYRSASMHI”, for which the protein production entry is “failed”. For “MSIWSPLLFNAEGKKQGYDCRYLHKLTDQGNKLSDSGLPVIFTLAHLCAMAGVSFSLIHSCVSRKYDPYRSFTIKKRSGGYRQIVVPEPELMHLQRWINEFILKRAKVHSCAAAYISGSDIKMNASKHLGANWLIKLDIQRFFESISELQVYYIFHRLGYPKLLSFEMARICTRVDTQSNRHFRPRWNNRIHHFEILEYCDSRVGYLPQGAPTSPSLSNLTCRKLDKEIYDLSCRSDCRYTRYADDFAFSFIDLDREKASNFVNQVSRIISSYGFRKNARKTKIIPPGSKKIITGLVLGNGKVHLQKELKDYIRQNIYFATKYGVDEHCKKRGFVSIDGFYNHLEGIVNFALFIEPDFGEKAFEEFRAIKWPSLIVGLHA”, the protein production result was “failed”.

Turning to “MSKARKTAASSGEPDFWRVARDWLHHWLPKVRGSSPKTVEAYRIGLESYVRWLETTEGTQRSHIGFGHFDRARLGRWVEWMRTERGYSDRTIMLRMTTMRVFLDHAGLEHPALTALGNDAAGIRVKPPARKPVDHLGEEHTKALLTAWGTGDAKSRRNRMLLILMYDTAARIGELAALTIADVGMDKPARVTLTGKRGKSRVVPLGERTRTHLAAYLEEFHPGPSMRDGDRPLFHSTRNGAIQPLSVDRIDEILKTAAARARRGTCPSMPERVHCHLIRRTRAMDLYQQGVPLPLIMQLLGHESMSTTSAFYAFATLDMMRKAVDAANPGPDPSKETWLSEQRLRQLHTLK”, the protein production result was “failed”.

Take “MSKELTAKKRAALNRLKTVRGHLDGIVRMLESDAYCVDVMKQISAVQSSLERANRVMLHNHLETCFSTAVLDGHGQAAIEELIDAVKFTPALTGPHARLGGAAVGESATEEPMPDASNM”: the protein production result was “not failed”. The result for “MSKFRSCSWKCSDMGKSLCGAGGLVWTPPHPLLRKALSHRGRGVKDTNFVGMTTRAVRKGTLRARALRRTQTVEEKTLWLALRNRFLNVKFRRQWPMGGYVVDFVCFEAKLIVELDGSQHAEEAARDYDAVRTEFLEAGGFTVLRFWNNEVRKNLEGVLLEIQKRLP” reads “failed”; that for “MSKGKYIHFDTLVSAKTGDIVAIQDILNQFRGYIISRSLRTAYRSDGSLYQYIDTDVQHKMETDLIEAIYKFEIRLEHHHHHH”, “failed”; that for “MSKGTLFTIAVTPKIPPRLARLEDLANDLWYSWDRATRSLFSRLDPSLWGAVGHNPKAFLKRVDETLLLKAAEDQVFLANYNSIVSAYDYYHSETLWNGIDASLNPSDKIAYFCFEFGFHESFPIYSGGLGILAGDHCKAASDLRLPLIGIGLLYRQGYFFQTIDNQGNQQVIYADSDFSDLPVAPVLREDGSEVRIKVELLQRPVAIKVWRAKIGHVSLYLLDTDLPENSPGDRDITHQLYGGDRVMRIEQEIVLGVGGIRALREMGIEPTIWHINEGHAAFMMLERIRGHVQQGLDFPAALEAVAASTVFTTHTAVPAGHDHFSDDMMNAYFEPFYRDLKITREDFLALGRVPGSDDFNMTDLAIRASRYQNGVSKIHGNVSARICKDVWPQIEPEENPMSYITNGVHVPTFLAQEWADLFDRYLGYEWRNNMCDTEYWSRIDTIPDHLFWSVRQTLKSQMFYGIRARLTTQNARNHGSEAHLDRLLRFTDPINPNILTLGFGRRFATYKRATLLFEDLDWLRRIMLDQEHPVMIVFAGKAHPADVPGQDLIRRVSEIARMPEFEGQILLVEDYDLRLARRLVAGVDVWINSPVYPLEASGTSGMKAGINGTINLSVLDGWWGEGYDGKNGWAIKPGPENMDAVRRDKEESKDFYETLQDHVVPLYYNRDKLGYSSGWVKMAKNSMKSLLPRYNATRMITEYTMKFYLPAKKQGALYAADDFSNARKIAAWKAFVREAWPGVTIRRLDKPFSQISFGEAVDFRVAVRLNGLHPEDVVVELLICRRLKKTTLCSFKHVRFQFRGIEEESAEHLFELDHTPDLCGKLDYYIRVYPYHALLTHPFEMGMMVWL”, “failed”. Consider “MSKHTVLFELGCEELPPKSLKTLRDALQAETVKGLKDAGLAFASIEAYAAPRRLALKIVDVDGAQADTQKRFDGPAVQAAYDAEGKPTKALEGFMRGQGITADQVSTFQAGKVEKVCYLKDVKGQTLDALLPQILQTALDNLPIAKRMRSAASRTEFVRPVKWVVLLKDDQIIEATIQDHQAGNVTYGHRFHAPEAVTLAHANDYLAALEKAYVVANFEKRQATIQEQVKKLADEVNATAIVPADLLDEVTSLVEWPVALRANFEERFLAVPQEALITTMQDNQKYFCLINSEGKLQPYFITVSNIESKDPTQIIEGNEKVVRPRLSDAEFFFLQDQKQPLASRKEKLANMVFQAQLGTLWDKSTRIAKLAVALSPITGANPADAEKAALLAKCDLTSELVGEFPELQGIAGTYYARIEGENTEVSEALGEQYLPKFAGDVLPKTKTGTTIALADRLDTLVGIFGIGQAPTGSKDPFALRRSAIGILRLIIENELDVTIEELVNLALQGYGDIVKDHDKTLADAVAFLEGRYRAKYEDQGVAVDVLQAVQALAPKS”, for which the protein production entry was “failed”. The result for “MSKKIFAALIVAVVATFAGYNIYQSQRAEMEMSDLAMANIEALANDGESSTETTWSCKGTVGTCGAKCGLCGTTIPKSKGTLTGSHKCSM” reads “failed”; that for “MSKKPHSIKVPTQYRATAKILKAALEQQKCIKTLIFAEKHARTRSLHTVLKKFSENRVALEKAIEETGLLRDNPSFDPSLAKILVTELLFGRKELNGESKPVQTVRSYKDRLLNSIRDFGVQRKEPNPRYVRINTNLYSLAEALDYLHKSDWRRKELPADASYADFLTAIKSLAENEFMTDLHVEGVLIFPAKWSNYWVRHPLVHSKRFILQNKATCLAAELLAPPSGATVLDMCAAPGMKTVHICNVMQNKGCIYSVEQDHVRYNTLCEITKDAGCDIVKPILGDALNLTPERFPDVEYILVDPSCSGSGMQNRMTVCDEPKEDKRLQKLQGLQIKILSHAMGAFPNVKRIAYCTCSLWKEENEQVVQRCLQLNPSFKLLSCKKALRNKWHNVGDKDYPNIGKNVLYCQPDSDLTDGIFLALFEKRREGEKD”, “failed”; that for “MSKKQKPTGNTGRKNQIKGKYAERSRKNGFGKFCLILQVIMSAAFMGVLVLLDMLPLKYLALAALILFFLWCITFTTQAVRKKKGVTGKVYSILLIAVLAVGTYYIAKTNDMIAAITSGGSKVDKMVVAVLKDDPAETLEDASDYEFGVQFNTGAENMKAAVMDIQDQIGDISTTEYKSVQEQAEALISGEVDAIIYNQSYTELMENAVEGYNDQIRIIYKHEIETKFDFGGSAKDDSLTKKPFTVYISGIDTYGDDADDDRDSIRSDVNIIAVVNPTTHQILLITTPRDYYIPIPGISDGMNDKLTHAGTYGIDVSMETLGALYETDINYYVRLNFSSLIEIVDILGGVDVYSEYAFTTGWESGYEMEVQQGINHFDGKQALAFSRERHALEGGDNQRGKNQQAVITAMLKKVLSPTMLLKANSIINQVSQDVETNISQGQLNSLVKSQLKSGAKWTIQSVAASGTDGEDYCYSVPDMPLYVLYPDEEVVNSIVELANIVEEGGSLESGEALN”, “failed”. The result for “MSKPEFIARQGRKPTGWLGHIVARVMARETRPENDRALSFLDLADGDSLIDIGCGHGETLFQADRIVRLSGSVGVDFSEVMLKRARARNRDAVWDTRMAFHCADTAALPFPDKRFGKALSVHTIYFWPNPAAHLAEAFRVLRRGGRFLFCYRSTADRRAVEEFPDTVYRFPSVQEVEEKLKLVGFLGPETTTEDIKGRLTHWSIAEKPLEHHHHHH” reads “not failed”.

The values above are taken from a protein production outcome set (Wang et al. 2014).
